Data taken from the nanobody polyreactivity screen of Harvey et al. (2022).

Assay: yeast display, Sf9 membrane polyspecificity reagent, FACS + sequencing; frameworks hold sequencing errors
Outline: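 After 36–48 hours of galactose induction, yeast (Saccharomyces cerevisiae BJ5465) displaying a synthetic nanobody library were stained at 4 °C for 1 hour with 10% biotinylated, detergent-solubilized Sf9 membrane reagent. Streptavidin microbeads enriched the stained cells before FACS sorting into low and high (top ~1%) gates on anti-HA and streptavidin fluorescence. Each clone's polyreactivity label reflects its gate of origin.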

| Sequence | polyreactivity (PSR sort gate) |
| --- | --- |
| QVQLVESGGRLVQAGGSLRLSCAASGRIFWGYALGRYRQAHGKVSELVAAITRSGGRTYYADSVKGRFTISRDNAKNTVYLQMTSLKREDTAVYYCNAVNSLQPYKFDYWVQGTQVTVSS | high polyreactivity |
| QVQLVESGGGLFQAGGSLRLSCAASGLTLYFYVMGWYRQAPGKERELVAAISSTGSTYYADSVKGRFTISRDNAKNTVYLQMNSLKPEDTAVYYCAARYGGHYGAEYYWGQGSQVTVSS | high polyreactivity |
| QVQLVESGGGLVQAGGSLRLSCAASGRTFQYNAMGWYRQAPGKEREFVAGITSIGGRTYYADSVKGRFTISRDNAKNTVYLQMNSLKPEETAVYYCAAVRGLAVGYDYWGQGTQVTVSS | high polyreactivity |
| QVQLVESAGGLVQAGGRLRLSCAASGITISYYAMGWYRQAPGKERELVASISWRGGGTYYADSVKGRFTISRDNAKNTVYLQMNSVKPEDTAVYYCAADEKLYITRYDYWGQGTQVTVSS | low polyreactivity |
| QVQLVESGVGLVQAGGSLRLSCAASGRTFPYNAMGWYRQAPGKERELVAVISSSGGSTYYADSVKGRFTISRDNAKNTVYLQMNSLKPEDTAVYYCNTRPYFYRRPGYRYSGYDYWGLGTQVTVSS | high polyreactivity |
| QVQLVESGGGLVQAGGSLRLSCAASGSTLVTYAMGWYRQAPGKERELVAAISWRGGSTYYADSVKGRFTISRDNAKNTVYLQMNSLKPEDTAVYYCIKLRAYKESETYYYWGQGTQVTVSS | low polyreactivity |
| QDQLVESVGGLVQAGGSLRLSCAASASTFGSNAMGWYRQAPGKDREFVAAISRRGGSTYYADSVKGRFTFSRDNAKNTVYLQMNSLKPEDTAVYYCAADYISLREEHYWGHGTQVTVSS | high polyreactivity |
| QVQLVESGGGLVQAGGSLRLSCAASGSTFSGYAKGWYRQAPGTEWELVAAINWNGGRTYYADSVKGRFTISRDNAKNTVYLQMNSLKPEDTAVYYCNAVTRAAYWWTARSTDYDYWGQGTQVTVSS | high polyreactivity |
| QVQLVESGGGLVQAGGSLRLSCAASGSTSKWYAMGWYRPAPGKERELVAAITKTGGRTYYADSVKGRFTISRDNAKNTVYLQMNSLKPEDTAVYYCAVEYLRGFIVIYDYWGQGTQVTVSS | high polyreactivity |
| QVQLVESGGGLVQAGGSLRLSCAASGSTFVVYAMGWYRQATGKERELVAAISANVGGTYYADSVKGRFTISRDNAKNTVYLQMNSLKPEVTAVYYCAADYAYNYFWRPGDYWGQGTQVTVSS | low polyreactivity |
| QVQLVESGGGLVQAGGSLRLSCAASGRIIAKYAMGWYRQAPGKERELVAAINWGGGSTYYADSVKGRFTISRDNAKITVYLQMNSLKPEDTAVYYCNRTPRSKGNYWGQGTQVTVSS | high polyreactivity |
| QVQLEESGGGLVQAGGSLRLSCAASGRTFSGYAMGSYRQAPGKDRELVAAITRRGGTTYYADSVKGRFTISRDNAKNTVYLQMNSLKPEDTAVYYCAAAKPRVISQKIIYYYWGQGTQVTVSS | high polyreactivity |
| QVQLVESGGGLVQAGGSLRLSCAASGSIFDDYAMGWSRQAPGKERELVAASSGGVSTNYADSVKGRFTISRDNAKNTVYLQMNSLKPEDTAVYYCNADYAGAYIHDYWGKGTQVTVSS | low polyreactivity |
| QVQLVESGGGLVQAGGSLRLSCAASGNTFSWYAMGWYRQAPWKERELVAVITSGGSTNYADSVKGRFTISRDNAKNTVYLQMNSLKTEDTAVYYFAADSYGGSKYDYWGQGTQVTVSS | low polyreactivity |
| QVQLVESGGGVVQARGSLRLSCAASGSTFDVNAMGWYRQAPWKDRELVAAISWNSGTTYYADSVKGRFTISRDNAKNSVYLQMNSLKPEDTAVYYCAASYGTGRRSKYGYWGQGTQVTVSS | high polyreactivity |
| QVQLVESGGGLVQAGGSLRLSCAASGRTWFYAMGWYRQAPGKERELVAAISGSSGSTYYADSVKGRFTISRDNAKNTVYLQMNSLKPEDTAVYYCAADFWRFYYEYDYWGQGTQVTVSS | low polyreactivity |
| QVQLVESGVGLVQAGRRLRLSCAASGFIFAWNGMGWYRKAPGKERELVAAISWSGGSTYYAVSVKGRFTISRDNEKNTVYLLMNTLKPEETAVYYCYRSWGSRPGSRLEYWGQGTQVTVSS | high polyreactivity |
| QVQRVESGGGLVQAGGSLRLSSAASGRIFWDNAMGGYRQEPGKERELVAAISDSVVITYYADSVKGRFTITRDNAKNTVYLQMNSLKPEDTAVYYCNVTGGPYDFTRWSEFDHWGQGTQETVSS | low polyreactivity |
| QVQLVESGGGLVQAGGSLRLSCAASGFILRAYAMGWYRQAPGKERELVAAITSATSTNYADSVKGRFTISRDNAKNTVYLQMNSLKPEDTAVYYCAADGGGGEFSYDSWGQGTQVTVSS | low polyreactivity |
| QVQLQESGGGLVLAGGSLRLSCAASGSIFLFYTMGWYRQAPVKEREFVAGITLRTPTYNADSVKGRFTISRDNVKNTVYLQMNSLKPEDTAVYYCAVAVGHYTEIWYWGQGTQVTMSS | high polyreactivity |
| QVPLVESGGGLVQAGGSLSLTCAASGRNLKYYDMGWYRQAPGKERELVAAISVSGTSTYYADSVKGRFTISRDNAKNTVYLQMNSLKPEDTAVYYCATATGRYSFDYWGQGTQVTLSS | low polyreactivity |
| QVQLVESGGGLVQAGGSLRLSCADSGSTFFRYAMGWYRQAPGKERELVAAISKSGASTYYADSVKGRFTISRDNAKNTVYLQMNSLKPEDTAVYYCNADVKKSSAREWQYGYDYWGQGTQVTVSS | low polyreactivity |

| Sequence | polyreactivity (PSR sort gate) |
| --- | --- |
| QVQLVESGGGLVQAGGSLRLSCAASGRISRYNTLGWSSQAPGKERELVAVISWSGASTYYADSVKGRFTISRDNAKNTVYLQMNSLKPEDTAVYYCAAYYRWYNYDYWGQGTQVTVSS | high polyreactivity |
| QDQLVESRGALVQAGGSLRLSCAASGITFVRNAMGWYRQAPGKERELVAAISSGGSTYYADSVKGRFTISRDNAKNTVYLQMNSLTREDTAVYYCAVLSSWRFSGYDYWGQGSQVTVSS | low polyreactivity |
| QVQLVESGGGLVQAGGSLRLSCASSGRTFYRNAMGWYRQAPGKERELVAAITSGGSTYYADSVKGRFTISRDNAKNTVYLQMNSLKPEDNAVYYCAKRIGWVPSRSWTPAFWGQGTQVNVSS | low polyreactivity |
| QVQLVESGGGLVQAGGSLRLSCAASGSTFQANTMGWYRQAPGKERELVAAISIRGANTYYADSVKGRFTISRDNAKNTVYLQMNSLKPEDTAVYYCATRVRKYSLRLDYWGQGTQVTVSS | high polyreactivity |
| QVQLVESGGGLVQAGGSLRLSCAASRSTFFRYAMGWYRQAPGKERELVAAITWSGGSTYYADSVKGRFTISRDNAKNTVYLQMNSLKPEDTAVYYCAAPWRLFSLYDYWGQGTQVTVSS | low polyreactivity |
| QVQLVESGGGLVQAGGSLRLSCAASGRIIGTNARGWYRQAPGNERELVASISSRSTRTYYADSVKGRFTISRDNAKNTVYLQMNSLKPEDTAVYYCAARYPYYVHYDYWGQGTQVTVSS | high polyreactivity |
| QVQLVESGGGLVQAGGSLRLSCAASGRTLHANTMGMYRQAPGKERELVAAITRGGGNTYYADSVKGRFTISRDNAKNTVYLQMNSLKPEDTAVYYCNADVSGYLWYEYDYWGQGTQVTVSS | low polyreactivity |
| QVQLVESGGGLVQAGGSLRLSCAASGFIFGKYAMGWYRQAPGKERELVAAITSDGRTYYADSVKGRFTISRDNAKNTVYLQMNSLKPEDTAVYYSAATRYGHRYYYRPYEYWGQGSQVTVSS | high polyreactivity |
| QVQLVESGGGIVQAGGSLRLSCAASGRTFYPNGMGWYRQERGKERQLVAAITSGGRTNYADSVKGRFTISRDNAKNTVYLQMHSRKPEDTAVYYSNAVKRRSTSSGMDYWGQGTQVTVSS | high polyreactivity |
| QVQLVESGGGLVQAGGSLRLSCAASGSTLYDYTMGWYRQAPGKERELVAAIRVSGARTFYADSVKGRFTISRDNAKNTVYLQMNSLKPEDTAVYYCAAEFGSFVSPYNYYYWGQGTQVTVSS | low polyreactivity |
| QVELVESGGGLVQAGGSLRLSCAASGFTFQEYAMGWYRQAPGQETELVAAISTSGDYTYYADSVKGRFTISRDNAKHTVYFQMNSLKPEDTAVYYCATGVDTYSLTVEHDSWGQGTQLTVSS | low polyreactivity |
| QVQLVESGGGLVQAGGSLRLSCAASGSTFKRYAMGLYRQAPGKERELVASIPSAASTYYADSVKGRFSISRDNAKNTVNLQMNSLKPEDTAVYYCAASAYSALYYWYDYWGQGTQVTVSS | high polyreactivity |
| QVQLVESGGGLVQAGGSLRLSCAASGLDYYAMGWYRQAPGKERELVAAIDWSGVSTYYADSVKGRFTISRDNAKNSVYLQMNSLKPEDTAVYYCAALYDGWPRVSYGLGEYGYWGQGTQVTVSS | low polyreactivity |
| QDQLVESGRGIFKAGGSLRLSCAASGSIFGDNAMGWSRHAPGKDRELVAAISSGGPTYADSVKGRFTISRDNAKNTVYLQMNSLKAEDSAVYFCNATDGINPYDLTDFEFDYWGQGTEVTVSS | low polyreactivity |
| QVQLVESGGGLVQAGGSLRLSCAASGRTFRYYAMGWYRQARGKERELVAAISKTGGSTYYADSVKGRFTISRDNAKNTVYLQMNSQKPEDTAVYYCAAQSGWGYSTFYYWGQGTQVTVSS | high polyreactivity |
| QVQLVESCGGLVQAGGSLRLSCAASGSIFPYYTMGWYRQAPWKERELVAAISGSGGSTYYADSVKGRFTISRDNAKNTVYLQMNSLKAEYTAVYYCAAYRRTWFDYWGQGTQVTVSS | high polyreactivity |
| QVQLVESGGGLVQAGGSLRLSCAASGSIFRYNTMGWYRQAPGKERELVATITRRGGSTYYADSVKGRFTISRDNAKNTVYLQMNSLKPEDTAVYYCNADNFGGPYNYWGQGTQVTVSS | low polyreactivity |
| QVQLEESGGGLVQAGGSLRLSCPASGITFYRYVMGWNRQAPGKERELDAAINWSTGTTNYADSVKGRFTISRDNAKNTVYLQMNSLKPEDTAVYYCNARYRLRFIYSLRYDYWGQGTQVTVSS | high polyreactivity |
| QVQLVESCGGLVQAGGSLRLSCSASGSTFVINAMGWYRQAPGKERELVAAISSGDNTNYADSVKGRFTISRDNAKNTVYLQMNSLKPEETAVYYCAALPAYLDYGARRSMDYWGQGTQVTVSS | low polyreactivity |
| QVQLVESGGGLVQAGGSLRLSCAASGRIFLGNAMGWYRQAPGKERELVDAITYSGRSTYYADSVKGRFTISRDNAKNTVYLQMNSLKPEDTAVYYCAARQYWTTDLPFQRYYYWGQGTHVTVSS | low polyreactivity |
| QVQLVESGGGLFQAGGSLRLSCAASGRTFHGYAMGWYRQAPGKERELVARINWSDGRTYYADSVKGRFTISRDNAKNTVYLQMNSLKPEDTAVYYCAADKTVSYAPAWYYYWGQGTQVTVSS | low polyreactivity |
